Patent publication US20110251266

Target: beta-NGF (nerve growth factor) (Homo sapiens) (UniProt P01138)
Assay: cell_activity
Conditions: as SEQ30(6); 100 nM aptamer; parent 92.7%

Chain of beta-NGF (nerve growth factor) (Homo sapiens) (P01138 122-241): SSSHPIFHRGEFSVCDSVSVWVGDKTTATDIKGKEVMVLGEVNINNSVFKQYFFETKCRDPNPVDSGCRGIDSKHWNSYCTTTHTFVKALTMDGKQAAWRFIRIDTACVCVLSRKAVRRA

Sequence | activity [% inhibition]
GGGAUAAAAAUAGAGUUUGAUAAACACCUGUAUUAAAACCC [SEQ30(6) G23A] | 91.2
GGGAUAAAAAUAGAGUUUGAUAAACACCUGUAUUAAAACCC [SEQ30(6) G20A] | 96.1
